The values that follow come from US20110076265A1 (POMONA RICERCA S R L, published 2011).

The target of assay [1] is HA protein (H1-subtype hemagglutinin) of influenza A virus A/PR/08/1934 (influenza A virus A/PR/08/1934 (H1N1), UniProt P03452 18-565). Nature of the assay: immunofluorescence on fixed, permeabilized infected cells, Fab49 at 100 µg/ml.
The target of assay [2] is Hemagglutinin of influenza B virus B/Lee/40 (influenza B virus B/Lee/40, UniProt P03460 16-584). Nature of the assay: immunofluorescence on fixed, permeabilized infected cells.
Assay [3] deals with T1, H3-subtype hemagglutinin of influenza A virus A/Aichi/2/68 (H3N2) (influenza A virus A/Aichi/2/68 (H3N2), UniProt P03437 17-566).
T1 construct: also called A/Aichi/2/68 (ATCC VR-547)
The description is as above.

The target in assay [4] is H1-subtype hemagglutinin of influenza A virus A/Wilson-Smith/33 (influenza A virus A/Wilson-Smith/33 …, UniProt P03454 18-565). The assay is described as follows: ELISA, sequential dilutions of purified Fab on infected cell lysates. Background: ELISA stands for enzyme-linked immunosorbent assay.

B1: Fab49 (human monoclonal Fab fragment produced by bacterial clone INF49) (Fab, V domains shown)
VH: LESGGGLVQPGGSLRLSCAASGITFSSYAMSWVRQAPGKGLEWVSTVNSGGGSTYYGDSVRGRFTISRDNSKSTLYLQLNSLRAEDTAIYYCAKDKGRPIFGLVTPSYYMDVWGNGT
VL: ELTQSPSSLSASVGDSVTITCRTSERISTYLNWYQQKPGKAPRLLVSGASTLQGGVPSRFSGSGSGTAFTLTINSLQPEDFATYYCQQSYSTPLTFGGGT
For the molecule B1, the binding result is “binds” in assay [1], “no binding (tested: 100 µg/ml)” in assay [2], “no binding (tested: 100 µg/ml)” in assay [3] and “binds” in assay [4].
